Source: US20250288684A1, “ACETAL-TYPE RELEASABLE POLYOXYETHYLENE DERIVATIVE, PRODUCTION METHOD THEREOF AND ACETAL-TYPE RELEASABLE POLYOXYETHYLENE CONJUGATE” (NOF CORPORATION, priority 2022, published 2025)

Legend:
[1] = Evaluation of stability of PEGylated insulin in buffer solutions with various pH values (HPLC); assay type: physicochemical; conditions: pH 6.0, 7.0, 8.0 and 9.0 buffer solutions, 25° C.
Experimental: With 100 μL of 100 mM phosphate buffer solution (pH 6.0), 100 μL of 100 mM phosphate buffer solution (pH 7.0), 100 μL of 100 mM ammonium formate buffer solution (pH 8.0), or 100 μL of 100 mM ammonium formate buffer solution (pH 9.0), 100 μL of 0.5 mg/mL PEG(20k)-OCO-NH-insulin prepared in Comparative Example 4 or 100 μL of 0.5 mg/mL 2MPEG(20k)-OCO-NH-insulin prepared in Example 26 was mixed, and then allowed to stand at 25° C. and subjected to HPLC analysis at a random timing.

[2] = Degradability test: decomposition in deuterium oxide buffer solution, NMR measurement; assay type: physicochemical; conditions: pH 7.4; sodium phosphate deuterium oxide buffer solution, pD 7.4, 40° C.; β-alanine adduct amount by NMR; read-out: half-life (t½) (converted)
Experimental: Each of the compounds of Formulas (50), (51), (52) and (53) (20 mg) was dissolved in sodium phosphate deuterium oxide buffer solution (0.7 mL) having a pD of 7.4, and then placed in a thermostatic bath at 40° C., and NMR measurement was performed at a random timing. […] A half-life (t½) was calculated from a formula (in which ln represents a logarithm with the Napier's number as a base, and λ represents a product of an exponent of the Napier's number in an approximation formula of the graph and −1) based on the approximation formula.
Each of the compounds of Formulas (75), (76), (77) and (78) (20 mg) was dissolved in sodium phosphate deuterium oxide buffer solution (0.7 mL) having a pD of 7.4, and then placed in a thermostatic bath at 40° C., and NMR measurement was performed at a random timing.

In the case of “PEG(20k)-OCO-NH-insulin: insulin reacted with SUNBRIGHT MENP-20T [reference compound]”, the “change in amount of PEGylated insulin over time” value [1] is reported as “no decrease”.

Work on `COCCOc1cccc(C2OCc3cc(COC(=O)NCCC(=O)O)ccc3O2)c1` (centres unmarked) [Formula (53)] yielded a half-life at 28.6 mg/mL [2] of 231 days.
